Results on one molecule are retold here after publication PMC10578478.

For data set [1], the target named is T1, Pla1 poly(A) polymerase wild-type (Schizosaccharomyces pombe (fission …, UniProt Q10295 1-566)).
T1 sequence: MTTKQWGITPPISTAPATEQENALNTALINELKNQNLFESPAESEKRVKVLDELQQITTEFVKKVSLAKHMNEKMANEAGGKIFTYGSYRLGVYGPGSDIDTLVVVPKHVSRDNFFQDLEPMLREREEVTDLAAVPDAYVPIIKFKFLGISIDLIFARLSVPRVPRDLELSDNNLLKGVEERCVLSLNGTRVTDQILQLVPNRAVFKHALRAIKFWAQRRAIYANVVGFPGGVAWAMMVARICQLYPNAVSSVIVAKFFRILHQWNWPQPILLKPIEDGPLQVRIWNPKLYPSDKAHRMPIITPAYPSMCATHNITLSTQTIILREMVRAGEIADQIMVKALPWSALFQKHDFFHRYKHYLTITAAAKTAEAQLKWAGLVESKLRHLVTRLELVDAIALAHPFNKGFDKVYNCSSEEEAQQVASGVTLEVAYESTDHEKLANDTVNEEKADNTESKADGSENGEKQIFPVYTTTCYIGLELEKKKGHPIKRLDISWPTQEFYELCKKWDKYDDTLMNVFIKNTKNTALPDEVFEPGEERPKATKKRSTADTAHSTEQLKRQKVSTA
Put plainly: fluorescence polarization. (Polarisation of emitted light reports the rotation of a fluorescent probe.)

Data set [2] addresses T2, Pla1-Y86D (Schizosaccharomyces pombe (fission …, UniProt Q10295 1-566, Y86D)).
T2 sequence: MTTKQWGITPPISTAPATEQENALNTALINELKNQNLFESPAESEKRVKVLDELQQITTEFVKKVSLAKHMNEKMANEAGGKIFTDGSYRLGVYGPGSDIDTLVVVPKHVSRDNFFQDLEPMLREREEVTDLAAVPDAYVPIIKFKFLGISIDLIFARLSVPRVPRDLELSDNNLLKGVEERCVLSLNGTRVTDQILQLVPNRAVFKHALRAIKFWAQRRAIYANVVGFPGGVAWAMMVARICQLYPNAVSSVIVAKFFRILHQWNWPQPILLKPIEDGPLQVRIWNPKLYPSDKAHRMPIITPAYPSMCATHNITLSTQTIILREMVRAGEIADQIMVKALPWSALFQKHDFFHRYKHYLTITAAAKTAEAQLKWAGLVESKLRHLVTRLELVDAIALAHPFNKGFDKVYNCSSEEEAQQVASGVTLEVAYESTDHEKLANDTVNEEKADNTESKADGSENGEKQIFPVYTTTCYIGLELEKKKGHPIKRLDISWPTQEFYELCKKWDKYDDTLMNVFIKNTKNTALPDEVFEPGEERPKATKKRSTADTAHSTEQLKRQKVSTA
As to the kind of experiment: fluorescence polarization.

One may read the Kd as the concentration at which binding is half-saturated. The low end stands for a tighter complex, the high end for a looser complex.

In the case of UUUCUGUGGCUA (ssRNA) [12-mer RNA primer], in data set [1], the equilibrium dissociation constant (Kd) was approximately 456 nM. The binding result in data set [2] was “no binding”.
